To fix the notation:
B1: BC3B117 (bispecific antibody, human IgG1, kappa, L234A L235A)
chain: EIVLTQSPATLSASPGERVTLSCSASSSVSYMNWYQQKPGQAPRRWIYDSSKLASGVPARFSGSGSGRDYTLTISSLEPEDFAVYYCQQWSRNPPTFGGGTKVEIKGGSEGKSSGSGSESKSTGGSQVQLVQSGAEVKKPGSSVKVSCKASGYTFTRSTMHWVKQAPGQGLEWIGYINPSSAYTNYNQKFQGRVTLTADKSTSTAYMELSSLRSEDTAVYYCASPQVHYDYAGFPYWGQGTLVTVSSEPKSSDKTHTCPPCPAPEAAGGPSVFLFPPKPKDTLMISRTPEVTCVVVSVSHEDPEVKFNWYVDGVEVHNAKTKPREEQYNSTYRVVSVLTVLHQDWLNGKEYKCKVSNKALPAPIEKTISKAKGQPREPQVYVYPPSREEMTKNQVSLTCLVKGFYPSDIAVEWESNGQPENNYKTTPPVLDSDGSFALVSKLTVDKSRWQQGNVFSCSVMHEALHNHYTQKSLSLSPG
heavy: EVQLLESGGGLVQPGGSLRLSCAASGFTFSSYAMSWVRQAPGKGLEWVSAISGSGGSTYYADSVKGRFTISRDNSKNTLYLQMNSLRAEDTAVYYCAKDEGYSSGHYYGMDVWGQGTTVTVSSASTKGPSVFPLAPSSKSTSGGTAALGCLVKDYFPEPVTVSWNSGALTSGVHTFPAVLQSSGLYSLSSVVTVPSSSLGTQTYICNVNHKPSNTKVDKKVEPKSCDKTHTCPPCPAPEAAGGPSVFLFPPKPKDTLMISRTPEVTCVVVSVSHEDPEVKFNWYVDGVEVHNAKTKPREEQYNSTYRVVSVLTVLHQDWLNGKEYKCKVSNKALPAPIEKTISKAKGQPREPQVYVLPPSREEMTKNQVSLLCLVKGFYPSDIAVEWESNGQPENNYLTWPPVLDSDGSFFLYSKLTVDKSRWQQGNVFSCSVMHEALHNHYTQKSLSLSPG
light: EIVLTQSPGTLSLSPGERATLSCRASQSISSSFLTWYQQKPGQAPRLLIYGASSRATGIPDRFSGGGSGTDFTLTISRLEPEDFAVYYCQHYGSSPMYTFGQGTKLEIKRTVAAPSVFIFPPSDEQLKSGTASVVCLLNNFYPREAKVQWKVDNALQSGNSQESVTEQDSKDSTYSLSSTLTLSKADYEKHKVYACEVTHQGLSSPVTKSFNRGEC
notes: IgG1 BCMAxCD3; HC1: CD3B2030-N106A LH scFv-Fc; also called BC3B117.001; B2030 LH NtoA
B2: BC3B119 (bispecific antibody, human IgG1, kappa, L234A L235A)
chain: B1 chain with A232S
heavy: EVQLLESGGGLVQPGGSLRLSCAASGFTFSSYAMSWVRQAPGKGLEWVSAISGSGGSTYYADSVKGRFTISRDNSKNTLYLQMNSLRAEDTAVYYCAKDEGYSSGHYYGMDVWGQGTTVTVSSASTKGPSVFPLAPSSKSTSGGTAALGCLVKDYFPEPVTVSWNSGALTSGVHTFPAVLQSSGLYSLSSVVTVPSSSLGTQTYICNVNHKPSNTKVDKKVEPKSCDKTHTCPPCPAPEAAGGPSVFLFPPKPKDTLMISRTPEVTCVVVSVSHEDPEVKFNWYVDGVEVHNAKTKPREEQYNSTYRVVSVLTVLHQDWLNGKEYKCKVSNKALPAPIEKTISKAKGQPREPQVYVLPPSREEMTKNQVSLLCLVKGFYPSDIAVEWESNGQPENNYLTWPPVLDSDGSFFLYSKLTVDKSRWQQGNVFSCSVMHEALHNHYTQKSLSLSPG
light: B1 light
notes: IgG1 BCMAxCD3; HC1: CD3B2030-N106S LH scFv-Fc; also called BC3B119.001; B2030 LH NtoS
B3: BC3B121 (bispecific antibody, human IgG1, kappa, L234A L235A)
chain: B1 chain with W46L, I174M
heavy: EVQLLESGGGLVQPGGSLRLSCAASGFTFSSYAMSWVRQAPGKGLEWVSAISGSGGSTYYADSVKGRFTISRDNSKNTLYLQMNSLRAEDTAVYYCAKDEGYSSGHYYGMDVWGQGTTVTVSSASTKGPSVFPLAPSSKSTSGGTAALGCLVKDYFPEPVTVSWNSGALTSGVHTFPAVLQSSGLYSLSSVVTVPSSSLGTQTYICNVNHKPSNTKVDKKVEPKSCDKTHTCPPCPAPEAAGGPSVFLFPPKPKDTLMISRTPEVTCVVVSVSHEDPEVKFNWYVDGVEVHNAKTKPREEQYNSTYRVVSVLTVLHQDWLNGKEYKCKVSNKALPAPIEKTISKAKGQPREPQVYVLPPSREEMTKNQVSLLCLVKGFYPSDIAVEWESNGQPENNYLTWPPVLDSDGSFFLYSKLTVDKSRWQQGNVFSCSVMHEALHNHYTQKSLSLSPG
light: B1 light
notes: IgG1 BCMAxCD3; HC1: CD3B2051-N106A LH scFv-Fc; also called BC3B121.001; B2051 LH NtoA
B4: BC3B122 (bispecific antibody, human IgG1, kappa, L234A L235A)
chain: B1 chain with W46L, I174M, A232G
heavy: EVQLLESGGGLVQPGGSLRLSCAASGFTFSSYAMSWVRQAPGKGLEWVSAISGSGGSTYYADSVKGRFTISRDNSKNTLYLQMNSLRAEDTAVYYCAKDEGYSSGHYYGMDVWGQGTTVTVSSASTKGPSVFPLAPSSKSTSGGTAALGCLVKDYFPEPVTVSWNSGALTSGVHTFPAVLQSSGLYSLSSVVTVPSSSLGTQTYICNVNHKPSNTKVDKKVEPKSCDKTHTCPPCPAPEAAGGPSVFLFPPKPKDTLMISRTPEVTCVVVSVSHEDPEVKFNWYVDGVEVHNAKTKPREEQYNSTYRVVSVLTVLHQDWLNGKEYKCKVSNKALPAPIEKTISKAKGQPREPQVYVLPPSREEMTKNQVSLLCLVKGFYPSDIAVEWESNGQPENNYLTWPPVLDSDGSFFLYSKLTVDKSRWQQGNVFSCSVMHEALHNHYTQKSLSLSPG
light: B1 light
notes: IgG1 BCMAxCD3; HC1: CD3B2051-N106G LH scFv-Fc; also called BC3B122.001; B2051 LH NtoG
B5: BC3B128 (bispecific antibody, human IgG1, kappa, L234A L235A)
chain: B1 chain with K164R, I174M, N187A, A232Q
heavy: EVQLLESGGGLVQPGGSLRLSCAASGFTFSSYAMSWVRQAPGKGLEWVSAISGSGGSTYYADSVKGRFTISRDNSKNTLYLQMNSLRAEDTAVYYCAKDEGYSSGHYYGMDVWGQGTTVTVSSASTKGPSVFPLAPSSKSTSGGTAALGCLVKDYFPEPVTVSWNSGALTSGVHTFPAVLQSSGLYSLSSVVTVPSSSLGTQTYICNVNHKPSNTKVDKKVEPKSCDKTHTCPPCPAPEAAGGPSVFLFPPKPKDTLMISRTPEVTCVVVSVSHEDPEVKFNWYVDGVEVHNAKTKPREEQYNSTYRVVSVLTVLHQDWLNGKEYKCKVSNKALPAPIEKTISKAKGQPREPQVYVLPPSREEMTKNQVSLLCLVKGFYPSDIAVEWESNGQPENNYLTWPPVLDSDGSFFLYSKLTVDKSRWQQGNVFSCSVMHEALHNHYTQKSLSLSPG
light: B1 light
notes: IgG1 BCMAxCD3; HC1: CD3B2089-N106Q LH scFv-Fc; also called BC3B128.001; B2089 LH NtoQ
B6: BC3B123 (bispecific antibody, human IgG1, kappa, L234A L235A)
chain: B1 chain with W46L, I174M, A232Q
heavy: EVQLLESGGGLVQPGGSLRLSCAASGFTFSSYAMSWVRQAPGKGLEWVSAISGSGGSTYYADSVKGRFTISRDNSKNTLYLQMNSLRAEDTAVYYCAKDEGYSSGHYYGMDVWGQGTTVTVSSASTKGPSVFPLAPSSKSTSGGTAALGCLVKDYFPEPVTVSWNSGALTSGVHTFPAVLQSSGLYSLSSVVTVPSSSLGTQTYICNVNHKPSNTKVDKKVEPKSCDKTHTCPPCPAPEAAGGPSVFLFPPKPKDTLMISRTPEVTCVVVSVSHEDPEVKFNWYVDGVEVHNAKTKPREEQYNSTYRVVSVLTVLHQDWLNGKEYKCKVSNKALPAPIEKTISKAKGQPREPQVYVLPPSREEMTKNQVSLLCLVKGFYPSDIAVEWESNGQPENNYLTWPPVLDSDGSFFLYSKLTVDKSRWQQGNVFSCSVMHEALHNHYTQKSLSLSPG
light: B1 light
notes: IgG1 BCMAxCD3; HC1: CD3B2051-N106Q LH scFv-Fc; also called BC3B123.001; B2051 LH NtoQ
B7: BC3B118 (bispecific antibody, human IgG1, kappa, L234A L235A)
chain: B1 chain with A232G
heavy: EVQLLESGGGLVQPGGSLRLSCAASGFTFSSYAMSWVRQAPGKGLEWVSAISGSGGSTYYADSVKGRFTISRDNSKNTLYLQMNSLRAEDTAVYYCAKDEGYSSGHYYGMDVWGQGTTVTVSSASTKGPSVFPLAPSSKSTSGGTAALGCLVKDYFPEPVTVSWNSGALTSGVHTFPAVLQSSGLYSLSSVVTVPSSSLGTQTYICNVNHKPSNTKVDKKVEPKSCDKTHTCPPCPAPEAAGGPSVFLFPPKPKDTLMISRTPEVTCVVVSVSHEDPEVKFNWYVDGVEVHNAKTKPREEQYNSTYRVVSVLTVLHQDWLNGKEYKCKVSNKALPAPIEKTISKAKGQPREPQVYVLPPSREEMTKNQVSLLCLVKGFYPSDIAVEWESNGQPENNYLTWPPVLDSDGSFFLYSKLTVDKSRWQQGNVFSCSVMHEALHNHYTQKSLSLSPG
light: B1 light
notes: IgG1 BCMAxCD3; HC1: CD3B2030-N106G LH scFv-Fc; also called BC3B118.001; B2030 LH NtoG
B8: BC3B127 (bispecific antibody, human IgG1, kappa, L234A L235A)
chain: B1 chain with K164R, I174M, N187A, A232G
heavy: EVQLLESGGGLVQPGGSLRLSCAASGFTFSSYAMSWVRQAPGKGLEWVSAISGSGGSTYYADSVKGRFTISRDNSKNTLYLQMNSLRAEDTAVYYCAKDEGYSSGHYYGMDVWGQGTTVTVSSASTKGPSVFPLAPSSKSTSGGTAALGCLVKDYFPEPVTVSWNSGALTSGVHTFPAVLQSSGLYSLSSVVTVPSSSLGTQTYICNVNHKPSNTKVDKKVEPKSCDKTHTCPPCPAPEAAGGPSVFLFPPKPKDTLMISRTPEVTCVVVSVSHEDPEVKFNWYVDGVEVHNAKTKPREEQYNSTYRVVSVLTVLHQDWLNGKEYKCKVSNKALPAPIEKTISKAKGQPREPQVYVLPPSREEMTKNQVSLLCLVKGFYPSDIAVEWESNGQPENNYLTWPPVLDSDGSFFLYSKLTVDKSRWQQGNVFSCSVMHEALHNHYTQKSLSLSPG
light: B1 light
notes: IgG1 BCMAxCD3; HC1: CD3B2089-N106G LH scFv-Fc; also called BC3B127.001; B2089 LH NtoG
B9: BC3B126 (bispecific antibody, human IgG1, kappa, L234A L235A)
chain: B1 chain with K164R, I174M, N187A
heavy: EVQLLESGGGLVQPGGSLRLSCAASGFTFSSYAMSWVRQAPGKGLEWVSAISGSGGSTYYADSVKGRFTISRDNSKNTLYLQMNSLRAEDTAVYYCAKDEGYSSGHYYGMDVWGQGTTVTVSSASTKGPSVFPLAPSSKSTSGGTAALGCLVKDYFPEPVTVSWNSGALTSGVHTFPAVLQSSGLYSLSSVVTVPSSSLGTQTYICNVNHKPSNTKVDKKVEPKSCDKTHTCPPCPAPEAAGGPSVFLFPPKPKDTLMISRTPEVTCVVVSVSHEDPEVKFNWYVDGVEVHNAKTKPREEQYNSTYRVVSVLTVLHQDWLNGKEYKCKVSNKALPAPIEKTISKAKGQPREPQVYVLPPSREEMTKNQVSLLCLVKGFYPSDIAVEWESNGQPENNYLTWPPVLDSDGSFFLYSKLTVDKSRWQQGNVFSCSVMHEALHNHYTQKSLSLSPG
light: B1 light
notes: IgG1 BCMAxCD3; HC1: CD3B2089-N106A LH scFv-Fc; also called BC3B126.001; B2089 LH NtoA

Changes are numbered by the printed parent chain. Names may count otherwise.

T1 sequence (P07766 23-207 limits assumed): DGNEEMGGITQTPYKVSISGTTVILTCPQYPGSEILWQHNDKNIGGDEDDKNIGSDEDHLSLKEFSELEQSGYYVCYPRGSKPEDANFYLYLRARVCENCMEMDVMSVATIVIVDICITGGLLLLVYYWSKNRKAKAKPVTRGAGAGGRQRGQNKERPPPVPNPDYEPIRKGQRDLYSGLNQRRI

The first test concerns the target T1, Human CD3 epsilon (CD3ε), on primary human pan T cells (human, UniProt P07766 23-207). The test is described as follows: cell-based or functional assay.
Regarding B1, the “EC50, Cytotoxicity” value turned out to be 0.149 nM.

In the case of B2, the “EC50, Cytotoxicity” value came out at 10 nM.

As for B3, the “EC50, Cytotoxicity” value came out at 0.1 nM.

For the molecule B4, the “EC50, Cytotoxicity” value amounted to 4.36 nM.

On to B5, for which the “EC50, Cytotoxicity” value was 0.0354 nM.

Consider B6, for which the “EC50, Cytotoxicity” value was 0.069 nM.

As for B7, the “EC50, Cytotoxicity” value stood at 0.745 nM.

Consider B8, for which the “EC50, Cytotoxicity” value was determined as 0.806 nM.

Consider B9, for which the “EC50, Cytotoxicity” value worked out at 0.182 nM.

Another test has as its target T1, Human CD3 epsilon (CD3ε), on primary …. The test is described as follows: flow cytometry on human T cells, anti-human IgG Fc A647 detection. In a few lines:
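Cryopreserved primary human pan T cells (50,000/well) incubated 1 hr at 37 °C with serially diluted bispecific antibodies; bound antibody detected with A647 anti-human IgG Fc (2 ug/mL, 30 min on ice). Read by iQue flow cytometry, gated on singlets and SYTOX green-negative live cells; secondary-alone wells as background.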
In general terms: A flow cytometer gives signals particle by particle.
In the case of B1, the EC50 was 60.9 nM.

With B2, the EC50 turned out to be 300 nM.

Consider B3, for which the EC50 amounted to 73.3 nM.

B4: the EC50 stood at 300 nM.

As for B5, the EC50 is 42.9 nM.

As for B6, the EC50 was found to be 65 nM.

Turning to B7, the EC50 is 257 nM.

B8 registered an EC50 of 300 nM.

B9 came in with an EC50 of 177 nM.

For another test the target is unchanged. The test is described as follows: cell-based or functional assay. The source holds these as a separate data set.
Regarding B1, the “H929 Killing EC50” value worked out at 0.149 nM.

As to B2, the “H929 Killing EC50” value came out at 10 nM.

B3: the “H929 Killing EC50” value turned out to be 0.1 nM.

Consider B4, for which the “H929 Killing EC50” value worked out at 4.36 nM.

On to B5, for which the “H929 Killing EC50” value worked out at 0.0354 nM.

Regarding B6, the “H929 Killing EC50” value came to 0.069 nM.

As for B7, the “H929 Killing EC50” value worked out at 0.745 nM.

As to B8, the “H929 Killing EC50” value turned out to be 0.806 nM.

B9: the “H929 Killing EC50” value amounted to 0.182 nM.

As usually defined, the EC50 is the concentration at which the effect is half-maximal.

For the origin of these results see patent publication US20250145711A1 (Janssen / Centocor, published 2025).
